Assay results reported in patent publication US20180021429A1, “ANTICANCER AGENTS OR ANTIMETASTATIC AGENTS USING FSTL1 AND COMBINATION DRUG THEREOF” (PHARMA FOODS INTERNATIONAL CO., LTD., priority 2015, published 2018).
Entries after “also recorded” stand apart in the source; their conditions may differ.

Target: T1, FSTL1 (Homo sapiens, UniProt Q12841)
T1 sequence (Q12841 21-308): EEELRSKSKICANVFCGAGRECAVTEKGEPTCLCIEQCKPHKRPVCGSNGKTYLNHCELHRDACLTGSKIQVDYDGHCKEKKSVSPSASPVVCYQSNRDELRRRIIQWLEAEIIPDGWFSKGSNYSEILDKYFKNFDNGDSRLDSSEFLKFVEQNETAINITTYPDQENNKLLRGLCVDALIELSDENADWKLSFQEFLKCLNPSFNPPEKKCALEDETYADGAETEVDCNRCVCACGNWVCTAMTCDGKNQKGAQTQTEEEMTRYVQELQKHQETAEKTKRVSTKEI
Experiment: Inhibition of activation of tumor cells by FSTL1, RANKL- and CCR2-positive cells in human pancreatic cancer cell line Panc1 (Examples 5, 7, 9, 10, 11)
Assay type: cell-based
Set-up: purchased R&D Systems, Inc. 1694-FN-050
Details: for inhibitory activity against the expansion of RANKL-positive cells and CCR2-positive cells: FSTL1 50 ng/mL
Protocol: It is known that tumor cells activated by stimulation with FSTL1 highly express molecule groups promoting bone metastasis and increase metastatic invasive capacity (Cancer Research 73: 6185, 2013). Thus, 2×10^7 cells/well of a human pancreatic cancer cell line Panc1 were suspended in 1 mL/well of D-MEM medium (GIBCO/Thermo Fisher Scientific Inc. Cat. No. C11885500BT) containing 10% fetal bovine serum, supplemented with 50 ng/mL (final concentration) of FSTL1 (R&D Systems, Inc.) and 10 μg/mL of the anti-FSTL1 antibody (#5-2, #5-8, #5-10, #5-43, #6-55, or #7-34) or its isotype mouse IgG (anti-DNP antibody) as a control antibody “Control”, and cultured under stimulation (6-well plate). 3 days thereafter, the number of cells was counted while the cells were stained with a PE-labeled anti-RANKL antibody (eBioscience Cat. No. 12-6619) and a PE-labeled anti-CCR2 antibody (R&D Systems, Inc. Cat. No. FAB151P) in order to examine the expression of markers indicating bone metastatic properties, and the contents of RANKL-positive cells and CCR2-positive cells were analyzed by flow cytometry using FACScan (Becton, Dickinson and Company) to calculate the numbers of cells per culture. […] Therefore, in Examples below, judgment was made with the number of cells as an index.
(§1) In the same way as in Example 5, a human pancreatic cancer cell line Panc1 was supplemented with 50 ng/mL (final concentration) of FSTL1 (R&D Systems, Inc.) and 10 μg/mL of the anti-FSTL1 antibody (the same clones as in Example 6) or a control antibody and cultured under stimulation. 3 days thereafter, the number of cells was counted while the cells were stained with a PE-labeled anti-RANKL antibody and a PE-labeled anti-CCR2 antibody, and the contents of RANKL-positive cells and CCR2-positive cells were analyzed by flow cytometry using FACScan (Becton, Dickinson and Company) to calculate the numbers of cells per culture (FIG. 67B).
as §1, with “20” for “50”, “FSTL1” for “FSTL1 (R&D Systems, Inc.)”, “(#5-2, #5-8, or #6-55)” for “(the same clones as in Example 6)”, “68B).” for “67B).”
as §1, with “FSTL1” for “FSTL1 (R&D Systems, Inc.)”, “(#5-2, #5-3, #6-55, #7-34, #8-1, #8-4, #8-7, or #8-8)” for “(the same clones as in Example 6)”, “culture.” for “culture (FIG. 67B).”
as §1, with “FSTL1” for “FSTL1 (R&D Systems, Inc.)”, “(#6-55)” for “(the same clones as in Example 6)”, “culture.” for “culture (FIG. 67B).”

[1] = Example 10, antibody 10 μg/mL, 3 days, including newly obtained clones
[2] = Example 7, antibody 10 μg/mL, 3 days

Molecule | inhibitory activity against the expansion of RANKL-positive cells and CCR2-positive cells [1] | inhibitory activity against the expansion of RANKL-positive cells and CCR2-positive cells [2] | further results
#6-55: chicken-mouse chimeric anti-FSTL1 antibody clone; variable regions SEQ ID NO: 783 (light), 785 (heavy) (antibody, V domains shown, mouse constant regions) VH: AVTLDESGGGLQTPGGALSLVCKGSGFTFTSVTMQWVRQAPGKGLEWVASVCSGSSTYYAPAVKGRATISRDNGQSTVRLQLSNLRPEDTGTYYCAKIAGRARWSCTSAAYNIDAWGHGTEVIVSS VL: ASTQPSSVSAIPGETVKITCSGGGNNYGWYQQRSPGSAPVTVIYYNDNRPSNIPSRFSGSTSGSTSTLTITGVQADDEAIYYCGSWDSNTDSGIFGAGTTLTVL | higher inhibitory activity; also recorded: high inhibitory activity |  | inhibition of cell induction of RANKL-positive cells and CCR2-positive cells (dose dependence test) (Example 11, figure legend): strongly inhibited the cell induction of both RANKL-positive cells and CCR2-positive cells; inhibitory activity against the expansion of RANKL-positive cells and CCR2-positive cells (Example 11, all tested doses 5, 10 and 20 μg/mL, dose dependence not confirmed): ~100%
#5-2: chicken-mouse chimeric anti-FSTL1 antibody clone; variable regions SEQ ID NO: 763 (light), 765 (heavy) (antibody, V domains shown, mouse constant regions) VH: AVTLDESGGGLQTPGGGLSLVCKGSGFTFSSFNMFWVRQAPGKGLEWVAGVGKDGGTGYGAAVDGRATISKDNGQSTLRLQLNNLRAEDTGTYYCAKAAGGCSYGWCGSYVGDIDAWGHGTEVIVSS VL: ASTQPSSVSANPGEAVKITCSGGSGSYYGWYQQKSPGSAPVTVIYNNNQRPSDIPSRFSGSKSGSTATLTITGVQAEDEAVYFCGGYDSSTGHGGIFGAGTTLTVL | higher inhibitory activity; also recorded: high inhibitory activity |  | 
#5-3: chicken-mouse chimeric anti-FSTL1 antibody clone; variable regions SEQ ID NO: 767 (light), 769 (heavy) (antibody, V domains shown, mouse constant regions) VH: AVTLDESGGGLQTPGGALSLVCKGSGFSFSSFNMFWVRQAPGKGLEWVAGIGKDGVPKYGAAVDGRATISKDNGQSTMRLQLNNLRAEDTGTYFCAKAAGGCSYDWCGIYAGDIDTWGHGTEVIVSS VL: ASTQPSSVSANPGETVKITCSGGSGYYYGWYQQKSPGSVPVTVIYNNNNRPSDIPSRFSGSKSGSTGTLTITGVRAEDEAVYYCGGYDNSGTGIFGAGTTLTVL |  | higher inhibitory activity | 
#8-7: chicken-mouse chimeric anti-FSTL1 antibody clone; variable regions SEQ ID NO: 799 (light), 801 (heavy) (antibody, V domains shown, mouse constant regions) VH: AVTLDESGGGLQTPGGGLSLVCKGSGFTFSSFNMFWVRQAPGKGLEWVAGIGKDGVPKYGAAVDGRATISKDNGQSTLRLQLNNLRAEDTGTYFCAKAAGGCSYDWCGIYAGDIDTWGHGTEVIVSS VL: ASTQPSSVSANPGEAVKITCSGGSGSYYGWYQQKSPGSAPVTVIYNNNQRPSDIPSRFSGSKSGSTATLTITGVQAEDEAVYFCGGYDSSTGHGGIFGAGTTLTVL | higher inhibitory activity; also recorded: high inhibitory activity |  | 
#5-8: chicken-mouse chimeric anti-FSTL1 antibody clone; variable regions SEQ ID NO: 771 (light), 773 (heavy) (antibody, V domains shown, mouse constant regions) VH: AVTLDESGGGLQTPGGGLSLVCKGSGFTFSSFNMFWVRQAPGKGLEWVAGIGKDGVPKYGTAVDGRATISKDNGQSTMRLQLNNLRAEDTGTYFCAKAAGGCSYDWCGIYTGDIDTWGHGTEVIVSS VL: ASTQPSSVSANPGEAVKITCSGGSGSYYGWYQQKSPGSAPVTVIYNNNQRPSDIPSRFSGSKSGSTATLTITGVQAEDEAVYFCGGYDSSTGHGGIFGAGTTLTVL |  | higher inhibitory activity | 
#8-4: chicken-mouse chimeric anti-FSTL1 antibody clone; variable regions SEQ ID NO: 795 (light), 797 (heavy) (antibody, V domains shown, mouse constant regions) VH: AVTLDESGGGLQTPGGGLSLVCKGSGFTLSSFNMFWVRQAPGKGLEWVAGVGKDGGTAYGAAVDGRATISRDSGQSTVRLQLNNLRAEDTGTYFCAKAAGGCSYSWCGAYVGDLDAWGHGTEVIVSS VL: ASSQPSSVSANPGETVKITCSGGSGYYYGWYQQKSPGSAPVTVIYNNDNKPSDIPSRFSGSKSGSTGTLTITGVQVEDEAVYFCGGYDNSGTGIFGAGTTLTVL | higher inhibitory activity; also recorded: high inhibitory activity |  | 
